Experimental data taken from article PMC11514473, “The transition state for coupled folding and binding of a disordered DNA binding domain resembles the unbound state” (Nucleic Acids Research, 2024).
Positions count from the first letter of the chain named.

Legend:
Assay in all cases: stopped-flow fluorescence (koff/kon); 10 mM Mg2+; 10 mM MES pH 6.5, 150 mM NaCl, 10 mM MgCl2, 0.05% Tween-20, 25 C; NMR: 10 mM Tris-d11, 150 mM NaCl, 10 mM MgCl2, 1 mM NaN3, 5% D2O (NOE at 25 C)
Conditions in all cases: protein: recombinant; tags: extra N-terminal Gly; chain copies: 2; label: 5' Alexa Fluor 488; hairpin (self-annealing, 11 bp stem, CCCC loop)
285bZIP E295G/E299G = molecular target: T1, 285bZIP E295G/E299G (human, UniProt P16220-1 285-339, C300S;C310S;C337S;E295G;E299G)
T1 sequence: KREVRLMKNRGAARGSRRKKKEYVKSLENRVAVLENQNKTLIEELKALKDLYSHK

285bZIP M291A = molecular target: T2, 285bZIP M291A (human, UniProt P16220-1 285-339, C300S;C310S;C337S;M291A)
T2 sequence: T1 sequence with M7A, G11E, G15E

285bZIP R302A = molecular target: T3, 285bZIP R302A (human, UniProt P16220-1 285-339, C300S;C310S;C337S;R302A)
T3 sequence: T1 sequence with G11E, G15E, R18A

285bZIP E306G = molecular target: T4, 285bZIP E306G (human, UniProt P16220-1 285-339, C300S;C310S;C337S;E306G)
T4 sequence: T1 sequence with G11E, G15E, E22G

285bZIP E287G = molecular target: T5, 285bZIP E287G (human, UniProt P16220-1 285-339, C300S;C310S;C337S;E287G)
T5 sequence: T1 sequence with E3G, G11E, G15E

285bZIP K309A = molecular target: T6, 285bZIP K309A (human, UniProt P16220-1 285-339, C300S;C310S;C337S;K309A)
T6 sequence: T1 sequence with G11E, G15E, K25A

285bZIP E299A = molecular target: T7, 285bZIP E299A (human, UniProt P16220-1 285-339, C300S;C310S;C337S;E299A)
T7 sequence: T1 sequence with G11E, G15A

285bZIP V288G = molecular target: T8, 285bZIP V288G (human, UniProt P16220-1 285-339, C300S;C310S;C337S;V288G)
T8 sequence: T1 sequence with V4G, G11E, G15E

285bZIP E287A = molecular target: T9, 285bZIP E287A (human, UniProt P16220-1 285-339, C300S;C310S;C337S;E287A)
T9 sequence: T1 sequence with E3A, G11E, G15E

For CCTGACGTCAGCCCCCTGACGTCAGG (structured_DNA) [AlexaFluor488-CREh], the Kd (285bZIP E295G/E299G) was 170 ± 50 nM, the Kd (285bZIP M291A) was 0.31 ± 0.03 nM and the Kd (285bZIP R302A) was 13.9 ± 1.8 nM. The Kd (285bZIP E306G) was 3.9 ± 0.2 nM, the Kd (285bZIP E287G) was 4.6 ± 0.6 nM and the Kd (285bZIP K309A) was 2.12 ± 0.08 nM. The Kd (285bZIP E299A) was 0.0711 ± 0.0011 nM, the Kd (285bZIP V288G) was 2.77 ± 0.16 nM and the Kd (285bZIP E287A) was 1.89 ± 0.11 nM.
